Assay results reported in PMC12669046.

Molecular target: T1, MS2 coat protein (fluorescently labelled) (MS2 virus) (UniProt P03612)
T1 sequence: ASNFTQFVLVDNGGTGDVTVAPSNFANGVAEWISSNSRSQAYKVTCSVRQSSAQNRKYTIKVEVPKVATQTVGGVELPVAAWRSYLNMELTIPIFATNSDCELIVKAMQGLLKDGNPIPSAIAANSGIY
Experiment: RNA-MaP
Details: RNA-MaP on MiSeq chip: MS2 protein 0.7-1,500 nM, incubation 0.8-1.5 h (lowest concentrations) to 10-20 min (highest), buffer and temperature per ref. 14, not …

Sequence | binding signal (200 nM input RNA S1 (on state), scale: fold) | binding signal (fold (qARLB, off Kd / on Kd))
AGUCCACGCUGACGUGGACAAAAGCAUGUACAUGAGGAUCACCCAUGUCAUGUACAAGCUUUUUGCUCGUCUUAAAA | 110 | –
CCGAAAACGGGAACCUUAUUCUUUAUGCAUGUUCAGGAAACUGAGCAUGCAAACAUGAGGAUCACCCAUGUGUUGUGGGAUCAGC [6348262 C85 G11 Eli Fisker mod (ratio sensor, top R2)] | – | 11
GAUUACGAGAGUGUUAUUCUUUGGAGUGGGACAUGAGGAUCACCCAUGUAAAUGUACAUGUUAGCUGCUUAGCAGUUGACAUGAU [6248647 U62 jandersonlee mod (ratio sensor, top R3)] | – | 34
